Source: article PMC7060540

Biological target: HIS-CbuHMGA (Catalpa bungei)
Test: BLI; Octet QK (Forte-Bio); GST-CbuSPL9 at 2381, 1191, 595.3, 297.6 and 148.8 nM on HIS-CbuHMGA; which protein was immobilised, buffer and temperature not told

- Kd: 311 nM
Substance: GST-CbuSPL9 (natural protein)
